Data set [1] concerns the target T1, HsRAD51 wild type (Homo sapiens, UniProt Q06609 1-339). In words: SPR; ATP (2.5 mM); SPR (Biacore 3000): 20 mM HEPES pH 7.5, 10% glycerol, 1 mM DTT, 1 mM MgCl2, 0.005% P-20, 2.5 mM indicated nucleotide, 150 mM KCl when indicated (text: salt similar to strand exchange), 25 C, 100 nM-1.6 uM protein. The conditions noted are these: protein: recombinant.
For data set [2], the target named is T1, HsRAD51 wild type. In words: SPR; ADP (2.5 mM); SPR (Biacore 3000): 20 mM HEPES pH 7.5, 10% glycerol, 1 mM DTT, 1 mM MgCl2, 0.005% P-20, 2.5 mM indicated nucleotide, 150 mM KCl when indicated (text: salt similar to strand exchange), 25 C, 100 nM-1.6 uM protein. The conditions noted are these: protein: recombinant; chain copies: 10; label: 5' biotin; single strand. (In general: In SPR one partner is held on a chip, and binding of the other changes the refractive index at the surface.)

Data set [3] addresses T1, HsRAD51 wild type. In words: SPR; no nucleotide; SPR (Biacore 3000): 20 mM HEPES pH 7.5, 10% glycerol, 1 mM DTT, 1 mM MgCl2, 0.005% P-20, 2.5 mM indicated nucleotide, 150 mM KCl when indicated (text: salt similar to strand exchange), 25 C, 100 nM-1.6 uM protein. The conditions noted are these: protein: recombinant.
In data set [4] the target is T2, HsRAD51(H294V) (Homo sapiens, UniProt Q06609 1-339, H294V). The data set is described as above. The conditions noted are these: protein: recombinant; chain copies: 10; label: 5' biotin; single strand.
T2 sequence (Q06609 whole entry H294V): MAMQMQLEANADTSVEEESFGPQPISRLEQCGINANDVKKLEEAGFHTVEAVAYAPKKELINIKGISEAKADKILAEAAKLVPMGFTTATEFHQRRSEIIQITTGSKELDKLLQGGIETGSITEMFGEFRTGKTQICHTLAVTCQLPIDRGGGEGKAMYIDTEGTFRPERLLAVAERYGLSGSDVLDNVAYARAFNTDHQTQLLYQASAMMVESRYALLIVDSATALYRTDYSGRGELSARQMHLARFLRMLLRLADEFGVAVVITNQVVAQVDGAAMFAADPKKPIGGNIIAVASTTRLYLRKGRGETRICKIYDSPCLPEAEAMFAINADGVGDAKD
The target in data set [5] is T3, HsRAD51(F129V) (Homo sapiens, UniProt Q06609 1-339, F129V). In words: SPR; ADP (2.5 mM); rapid dissociation; SPR (Biacore 3000): 20 mM HEPES pH 7.5, 10% glycerol, 1 mM DTT, 1 mM MgCl2, 0.005% P-20, 2.5 mM indicated nucleotide, 150 mM KCl when indicated (text: salt similar to strand exchange), 25 C, 100 nM-1.6 uM protein. The conditions noted are these: protein: recombinant; chain copies: 10; label: 5' biotin; single strand.
T3 sequence (Q06609 whole entry F129V): as the sequence (Q06609 whole entry H294V) above, with F129V, V294H counted along it

Data set [6] deals with T2, HsRAD51(H294V). The data set is described as above. The conditions noted are these: protein: recombinant; chain copies: 10; label: 5' biotin; single strand.
The target of data set [7] is T3, HsRAD51(F129V). In words: SPR; ADP (2.5 mM); SPR (Biacore 3000): 20 mM HEPES pH 7.5, 10% glycerol, 1 mM DTT, 1 mM MgCl2, 0.005% P-20, 2.5 mM indicated nucleotide, 150 mM KCl when indicated (text: salt similar to strand exchange), 25 C, 100 nM-1.6 uM protein. The conditions noted are these: protein: recombinant; chain copies: 16; label: 5' biotin on strand 1; blunt.

Setting [8] is: chain copies: 10, label: 5' biotin, single strand.
Where [9] appears, read: chain copies: 16, label: 5' biotin on strand 1, blunt.

The values that follow come from article PMC3155514, “Subunit Interface Residues F129 and H294 of Human RAD51 Are Essential for Recombinase Function”.

As usually defined, the Kd is the constant that tells how readily two partners part at equilibrium.

T1 sequence (Q06609 whole entry): as the sequence (Q06609 whole entry H294V) above, with V294H counted along it

TTTTTTTTTTTTTTTTTTTTTTTTTTTTTTTTTTTTTTTTTTTTTTTTTT (ssDNA) [dT50]: the Kd was determined as 90 nM in the data set with HsRAD51 wild type [1] (setting [8]); 20 nM with HsRAD51 wild type [2]; 15 nM with HsRAD51 wild type [3] (setting [8]); 28 nM in the data set with HsRAD51(H294V) [4]; 54 nM with HsRAD51(F129V) [5]; 43 nM with HsRAD51(H294V) [6].

B1: 50 bp dsDNA (dsDNA)
DNA 1: TCGAGAGGGTAAACCACAATTATTGATATAAAATAGTTTTGGGTAGGCGA
DNA 2: TCGCCTACCCAAAACTATTTTATATCAATAATTGTGGTTTACCCTCTCGA
As for B1, the Kd with HsRAD51 wild type [1] (setting [9]) was 262 nM; with HsRAD51(F129V) [7], 446 nM; in the data set with HsRAD51 wild type [3] (setting [9]), 264 nM.
